# Laboratory results from paper PMC6821020, “Arabidopsis thaliana alternative dehydrogenases: a potential therapy for mitochondrial complex I deficiency? Perspectives and pitfalls” (Orphanet Journal of Rare Diseases, 2019).
# Substrate: NC(=O)C1=CN([C@@H]2O[C@H](COP(=O)(O)OP(=O)(O)OC[C@H]3O[C@@H](n4cnc5c(N)ncnc54)[C@H](O)[C@@H]3O)[C@@H](O)[C@H]2O)C=CC1
# Assay: cells, lysate or membranes
# Type: biochemical, Arabidopsis thaliana
# Details: rotenone-resistant activity in AtNDA2-transfected control fibroblasts, DCQ 50 μM, rotenone 8 μM, KCN 650 μM, 10 mM KH2PO4 pH 7.2, BSA, 37 °C
protein,measurement,value
"AtNDA2 (Arabidopsis thaliana) (protein, lentiviral expression in human control fibroblasts (NHDF); permeabilised cells) SPAKIPNDVDRSQYSGLPPTREGEKPRVVVLGSGWAGCRLMKGIDTNLYDVVCVSPRNHMVFTPLLASTCVGTLEFRSVAEPISRIQPAISREPGSFFFLANCSRLDADAHEVHCETLTDGLNTLKPWKFKIAYDKLVIASGAEASTFGIHGVMENAIFLREVHHAQEIRRKLLLNLMLSDTPGISKEEKRRLLHCVVVGGGPTGVEFSGELSDFIMKDVRQRYAHVKDDIHVTLIEARDILSSFDDRLRRYAIKQLNKSGVRFVRGIVKDVQSQKLILDDGTEVPYGLLVWSTGVGPSPFVRSLGLPKDPTGRIGIDEWMRVPSVQDVFAIGDCSGYLETTGKPTLPALAQVAEREGKYLANLLNAIGKGNGGRANSAKEIELGVPFVYKHLGSMATIGRYKALVDLRESKDAKGISMTGFVSWFIWRSAYLTRVISWRNRFYVAINWFTTFVFGRDISRI",Km,9.7 ± 3.3 µM
